According to article PMC9482650, “Quantitative fragmentomics allow affinity mapping of interactomes” (Nature Communications, 2022):

How the values were obtained:
Test in all cases: holdup assay
Parameters in all cases: key: below the threshold = too weak to quantify, mostly under pKd 3.1 to 4
[1] = molecular target: GRID2IP_1, A4D2P6
[2] = molecular target: FRMPD3, Q5JV73
[3] = molecular target: DLG4_1, P78352
[4] = molecular target: T1, SNTG1, Q9NSN8
T1 sequence (Q9NSN8 52-150, limits assumed, looked up): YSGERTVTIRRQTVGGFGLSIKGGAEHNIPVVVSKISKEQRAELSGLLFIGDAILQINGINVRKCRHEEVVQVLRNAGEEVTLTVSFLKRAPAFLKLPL

[5] = molecular target: T2, DLG3_2, Q92796
T2 sequence (Q92796 221-321, limits assumed, looked up): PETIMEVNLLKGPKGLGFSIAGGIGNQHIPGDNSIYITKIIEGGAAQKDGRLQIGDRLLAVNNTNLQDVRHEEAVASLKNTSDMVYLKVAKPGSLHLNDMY

[6] = molecular target: T3, FRMPD1, Q5SYB0
T3 sequence (Q5SYB0 52-145, limits assumed, looked up): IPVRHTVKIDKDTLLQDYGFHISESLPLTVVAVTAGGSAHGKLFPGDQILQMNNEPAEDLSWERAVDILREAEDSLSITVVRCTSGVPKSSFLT

[7] = molecular target: MAGI2_5, Q86UL8
Sequence of MAGI2_5, Q86UL8 (Q86UL8 915-1017): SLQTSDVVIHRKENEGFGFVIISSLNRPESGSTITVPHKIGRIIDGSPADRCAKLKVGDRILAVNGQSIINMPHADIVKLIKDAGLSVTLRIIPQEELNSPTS

[8] = molecular target: T4, MPDZ_10, O75970
T4 sequence (O75970 1624-1722, limits assumed, looked up): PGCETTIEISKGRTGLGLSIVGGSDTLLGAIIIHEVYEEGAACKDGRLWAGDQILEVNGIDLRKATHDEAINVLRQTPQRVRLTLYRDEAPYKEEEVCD

[9] = molecular target: NHERF4_1, Q86UT5-2
Sequence of NHERF4_1, Q86UT5-2 (Q86UT5 other isoform, or with tags, fused parts or gaps): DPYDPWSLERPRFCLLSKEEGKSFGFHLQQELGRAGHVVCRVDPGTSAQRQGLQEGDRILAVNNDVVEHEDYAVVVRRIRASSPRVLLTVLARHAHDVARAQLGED

[10] = molecular target: T5, MPDZ_5, O75970
T5 sequence (O75970 695-796, limits assumed, looked up): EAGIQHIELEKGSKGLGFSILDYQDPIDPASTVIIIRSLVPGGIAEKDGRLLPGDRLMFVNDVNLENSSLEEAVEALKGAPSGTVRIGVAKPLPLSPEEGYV

[11] = molecular target: GRIP2_6, Q9C0E4
Sequence of GRIP2_6, Q9C0E4 (Q9C0E4 648-740): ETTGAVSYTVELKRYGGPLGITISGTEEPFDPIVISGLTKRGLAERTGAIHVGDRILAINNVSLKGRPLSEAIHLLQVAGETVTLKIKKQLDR

[12] = molecular target: HTRA2, O43464
Sequence of HTRA2, O43464 (O43464 355-458): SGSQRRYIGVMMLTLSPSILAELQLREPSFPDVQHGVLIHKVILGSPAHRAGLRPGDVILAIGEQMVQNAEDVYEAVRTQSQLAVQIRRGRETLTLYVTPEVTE

[13] = molecular target: T6, NHERF3_3, Q5T2W1
T6 sequence (Q5T2W1 238-333, limits assumed, looked up): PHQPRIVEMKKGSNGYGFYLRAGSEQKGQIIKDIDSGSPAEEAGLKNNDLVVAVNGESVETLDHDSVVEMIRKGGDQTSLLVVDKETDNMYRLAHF

[14] = molecular target: FRMPD2_1, Q68DX3
Sequence of FRMPD2_1, Q68DX3 (Q68DX3 770-861): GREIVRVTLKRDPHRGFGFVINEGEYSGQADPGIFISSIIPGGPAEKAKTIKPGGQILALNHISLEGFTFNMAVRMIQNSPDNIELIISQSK

[15] = molecular target: T7, GRIP1_5, Q9Y3R0
T7 sequence (Q9Y3R0 568-668, limits assumed, looked up): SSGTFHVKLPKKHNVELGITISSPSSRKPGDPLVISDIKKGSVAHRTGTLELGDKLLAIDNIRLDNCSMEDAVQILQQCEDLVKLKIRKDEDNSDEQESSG

[16] = molecular target: SCRIB_2, Q14160
Sequence of SCRIB_2, Q14160 (Q14160 857-960): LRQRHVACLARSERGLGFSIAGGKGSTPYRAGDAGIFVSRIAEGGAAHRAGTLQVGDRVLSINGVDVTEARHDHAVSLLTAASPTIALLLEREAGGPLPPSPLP

[17] = molecular target: DLG1_1, Q12959
[18] = molecular target: PICK1, Q9NRD5
Sequence of PICK1, Q9NRD5 (Q9NRD5 17-115): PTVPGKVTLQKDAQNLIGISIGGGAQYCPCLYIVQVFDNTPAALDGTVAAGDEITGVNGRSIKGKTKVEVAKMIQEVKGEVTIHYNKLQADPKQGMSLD

[19] = molecular target: T8, APBA1_1, Q02410
T8 sequence (Q02410 651-752, limits assumed, looked up): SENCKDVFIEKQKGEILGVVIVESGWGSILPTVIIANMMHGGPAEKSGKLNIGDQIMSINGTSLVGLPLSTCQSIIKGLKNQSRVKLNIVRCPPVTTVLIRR

[20] = molecular target: T9, LIN7A, O14910
T9 sequence (O14910 103-200, limits assumed, looked up): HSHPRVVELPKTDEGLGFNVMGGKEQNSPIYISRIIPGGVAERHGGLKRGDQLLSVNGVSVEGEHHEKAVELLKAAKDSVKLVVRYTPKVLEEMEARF

[21] = molecular target: PDLIM1, O00151
Sequence of PDLIM1, O00151 (O00151 1-87): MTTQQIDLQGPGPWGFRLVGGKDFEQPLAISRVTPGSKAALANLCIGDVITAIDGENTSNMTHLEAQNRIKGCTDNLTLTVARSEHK

[22] = molecular target: NHERF4_4, Q86UT5
Sequence of NHERF4_4, Q86UT5 (Q86UT5 464-550): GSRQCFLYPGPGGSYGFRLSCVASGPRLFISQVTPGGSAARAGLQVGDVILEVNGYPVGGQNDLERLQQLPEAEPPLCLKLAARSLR

[23] = molecular target: MAGI2_3, Q86UL8
Sequence of MAGI2_3, Q86UL8 (Q86UL8 600-682): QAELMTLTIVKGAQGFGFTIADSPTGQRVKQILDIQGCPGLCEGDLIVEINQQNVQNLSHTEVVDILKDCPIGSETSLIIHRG

[24] = molecular target: T10, PARD3B_1, Q8TEW8
T10 sequence (Q8TEW8 196-299, limits assumed, looked up): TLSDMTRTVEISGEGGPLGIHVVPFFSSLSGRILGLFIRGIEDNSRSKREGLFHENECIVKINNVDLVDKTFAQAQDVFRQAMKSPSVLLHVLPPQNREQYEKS

[25] = molecular target: LNX1_2, Q8TBB1
Sequence of LNX1_2, Q8TBB1 (Q8TBB1 371-470): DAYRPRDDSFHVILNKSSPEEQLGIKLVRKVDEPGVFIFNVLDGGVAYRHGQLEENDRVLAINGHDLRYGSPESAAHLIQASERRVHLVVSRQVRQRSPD

[26] = molecular target: T11, GRIP1_3, Q9Y3R0
T11 sequence (Q9Y3R0 247-346, limits assumed, looked up): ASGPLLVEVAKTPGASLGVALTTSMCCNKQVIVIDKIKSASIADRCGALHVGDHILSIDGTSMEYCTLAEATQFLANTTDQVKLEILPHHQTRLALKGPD

[27] = molecular target: LDB3, O75112
Sequence of LDB3, O75112 (O75112 1-94): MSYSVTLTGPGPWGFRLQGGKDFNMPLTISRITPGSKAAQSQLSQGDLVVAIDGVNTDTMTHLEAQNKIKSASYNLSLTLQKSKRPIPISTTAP

[28] = plain residues with an end cap or a label only (N-terminal biotin on a linker: ahx)
[29] = plain residues with an end cap or a label only (N-terminal biotin on a linker: ttds)

Measured: pKd

Sequence of DLG4_1, P78352 (P78352 62-152): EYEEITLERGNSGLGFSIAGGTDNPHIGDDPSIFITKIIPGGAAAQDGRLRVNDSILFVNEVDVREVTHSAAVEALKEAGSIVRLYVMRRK
Sequence of GRID2IP_1, A4D2P6 (A4D2P6 1-87): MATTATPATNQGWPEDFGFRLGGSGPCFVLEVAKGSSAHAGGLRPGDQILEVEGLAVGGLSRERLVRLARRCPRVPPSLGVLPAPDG
Sequence of FRMPD3, Q5JV73 (Q5JV73 12-100): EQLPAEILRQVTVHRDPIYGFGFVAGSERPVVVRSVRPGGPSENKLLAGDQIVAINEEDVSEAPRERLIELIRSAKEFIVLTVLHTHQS

B1: MYO18A, Q92614 (peptide)
chain: TEAKLTETNA
below the threshold: [1]; [28] | [2]; [28] | [3]; [28] | [4]; [28] | [5]; [28] | [6]; [28] | [7]; [28] | [8]; [28] | [9]; [28] | [10]; [28] | [11]; [28] | [12]; [28] | [13]; [28] | [14]; [28] | [15]; [28] | [16]; [28] | [17]; [28] | [18]; [28] | [19]; [28] | [20]; [28] | [21]; [28] | [22]; [28] | [23]; [28] | [24]; [28] | [25]; [28] | [26]; [28] | [27]; [28]

B2: ARHGAP17, Q68EM7 (peptide)
chain: IDNDTESTAL
4.47: [7]; [29]
below the threshold: [1]; [29] | [2]; [29] | [3]; [29] | [4]; [29] | [5]; [29] | [6]; [29] | [8]; [29] | [10]; [29] | [11]; [29] | [12]; [29] | [13]; [29] | [14]; [29] | [15]; [29] | [17]; [29] | [18]; [29] | [19]; [29] | [20]; [29] | [21]; [29] | [22]; [29] | [23]; [29] | [25]; [29] | [26]; [29] | [27]; [29]
3.61: [16]; [29]
4.16: [9]; [29]
3.93: [24]; [29]

B3: KCNT2, Q6UVM3 (peptide)
chain: GQDSREETQL
below the threshold: [1]; [29] | [2]; [29] | [3]; [29] | [6]; [29] | [8]; [29] | [10]; [29] | [11]; [29] | [12]; [29] | [13]; [29] | [14]; [29] | [15]; [29] | [17]; [29] | [18]; [29] | [19]; [29] | [20]; [29] | [21]; [29] | [22]; [29] | [23]; [29] | [24]; [29] | [25]; [29] | [26]; [29] | [27]; [29]
3.83: [16]; [29]
4.37: [7]; [29]
3.73: [4]; [29]
4.06: [9]; [29]
4: [5]; [29]

B4: TJP2, Q9UDY2 (peptide)
chain: QSARYRDTEL
3.68: [17]; [29]
3.59: [1]; [29]
3.73: [4]; [29] | [9]; [29]
3.69: [21]; [29]
below the threshold: [2]; [29] | [5]; [29] | [6]; [29] | [8]; [29] | [10]; [29] | [11]; [29] | [12]; [29] | [13]; [29] | [14]; [29] | [15]; [29] | [18]; [29] | [19]; [29] | [20]; [29] | [23]; [29] | [24]; [29] | [26]; [29] | [27]; [29]
3.47: [22]; [29]
3.52: [3]; [29] | [25]; [29]
3.48: [7]; [29]
3.9: [16]; [29]
